According to patent US20060287236A1:

Biological target: transferrin receptor (TfR) (human) (UniProt P02786)
Experiment: HeLa cell based 125I-transferrin assay

Chain of transferrin receptor (TfR) (human) (P02786 whole entry): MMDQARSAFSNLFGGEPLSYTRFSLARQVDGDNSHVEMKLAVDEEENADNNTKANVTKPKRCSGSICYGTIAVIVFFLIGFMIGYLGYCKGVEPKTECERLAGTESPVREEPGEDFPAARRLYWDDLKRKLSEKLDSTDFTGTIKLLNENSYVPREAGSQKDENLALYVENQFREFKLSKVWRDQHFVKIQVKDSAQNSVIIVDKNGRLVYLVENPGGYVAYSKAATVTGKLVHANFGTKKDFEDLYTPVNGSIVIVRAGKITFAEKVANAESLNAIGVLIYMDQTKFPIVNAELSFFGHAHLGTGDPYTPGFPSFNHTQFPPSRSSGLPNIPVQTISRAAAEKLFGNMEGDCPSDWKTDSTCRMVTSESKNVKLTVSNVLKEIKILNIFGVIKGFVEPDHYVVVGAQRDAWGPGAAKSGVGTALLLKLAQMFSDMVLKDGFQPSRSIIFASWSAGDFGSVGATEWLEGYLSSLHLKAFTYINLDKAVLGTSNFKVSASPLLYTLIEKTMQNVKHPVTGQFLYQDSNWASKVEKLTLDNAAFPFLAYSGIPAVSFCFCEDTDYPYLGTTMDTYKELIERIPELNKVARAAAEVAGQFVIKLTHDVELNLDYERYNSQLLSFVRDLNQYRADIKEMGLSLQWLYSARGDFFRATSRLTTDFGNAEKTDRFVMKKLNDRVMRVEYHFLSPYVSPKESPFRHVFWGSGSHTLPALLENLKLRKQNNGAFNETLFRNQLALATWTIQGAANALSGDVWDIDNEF

Question: Which K does the source give for “soluble H63D-HFE/β2m heterodimer (from UniProt P61769 21-119)” here?
Answer: 105 nM
